Consider one substance from patent US20210145935A1.

Assay [1] addresses H3N2 pseudotyped lentiviral particles (H3 from A/Denmark/70/03, N2 from A/Texas/50/2012) (influenza A virus H3N2 A/Denmark/70/03; influenza A virus H3N2 A/Texas/50/2012). Kind of assay: cell-based or functional assay.
Assay [2] concerns the target H1N1 pseudotyped lentiviral particles (H1 and N1 from swine H1N1 A/California/04/09) (influenza A virus H1N1 A/California/04/09). Kind of assay: cell-based or functional assay.

Sequence of recombinant vaccinia virus complement control protein (VCP) (P68638 20-263): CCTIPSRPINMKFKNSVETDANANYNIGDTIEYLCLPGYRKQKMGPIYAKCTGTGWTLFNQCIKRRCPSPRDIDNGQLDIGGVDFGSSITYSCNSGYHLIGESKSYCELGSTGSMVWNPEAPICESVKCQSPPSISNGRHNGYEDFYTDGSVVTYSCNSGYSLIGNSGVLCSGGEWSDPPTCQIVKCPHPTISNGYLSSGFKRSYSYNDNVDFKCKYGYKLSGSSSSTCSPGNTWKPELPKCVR

As to “recombinant vaccinia virus complement control protein (VCP) (from UniProt P68638 20-263)”, the luciferase reporter activity of transduced MDCK cells, 40 µg/ml protein in assay [1] worked out at 30 % increase; in assay [2], 45 % reduction.
